Experimental data from the DeepSol protein solubility set.

Experiment: soluble on expression in E. coli; label from the status in PepcDB or PDB records

Sequence	soluble on expression in E. coli
MTESAPSAFFTTSTPADHVHEEESSNTGYFENLPENDIHSFFEIDATSEWIKQGNHQRIALQFPDSLLPYSEKVTKLIESRFRSESAKKTFVLADTSYRSCCVDEVAAAHADCTALVHFGEACHSAPTDKIDVKYVLGSMPIFIDQFRMEFQNVADQLTAEHIVLLMDSCFSHEQEKVAAVIKEVLPGNRHVECSLLPSEDVLKQNRQNIYLGREIPSCLRNNQPTDLIFCGFPNSPLLPIWLLSYPSCSTVSHFNPINKTIQHESTRSSRLLRKRLFLVEKLKDADTVGLVVGSVGVDKHREAVKRMREMCKKAGKKIYVISVGKINVPKLSNFSTDIDVFVLLSCPFGVVLDSSDYFRPVVSYFEAEIALNPAKTWAADFGWSAEFAAFLEDKIETEVPDDKAAGDFSLISGKVRVQKTEEEKNGDGPSSVAIYNPGYCNDRTWKGLNDGVSTAEDSTKMGEGRSGIAQGYSGK	not soluble
MRGSHHHHHHTDPALRALVSSNVTMQFGSKPLFENISVKFGGGNRYGLIGANGSGKSTFMKILGGDLEPTLGNVSLDPNERIGKLRQDQFAFEEFTVLDTVIMGHKELWEVKQERDRIYALPEMSEEDGYKVADLEVKYGEMDGYSAEARAGELLLGVGIPVEQHYGPMSEVAPGWKLRVLLAQALFADPDILLLDEPTNNLDIDTIRWLEQVLNERDSTMIIISHDRHFLNMVCTHMADLDYGELRVYPGNYDEYMTAATQARERLLADNAKKKAQIAELQSFVSRFSANASKSRQATSRARQIDKIKLEEVKASSRQNPFIRFEQDKKLFRNALEVEGLTKGFDNGPLFKNLNLLLEVGEKLAVLGTNGVGKSTLLKTLVGDLQPDSGTVKWSENARIGYYAQDHEYEFENDLTVFEWMSQWKQEGDDEQAVRSILGRLLFSQDDIKKPAKVLSGGEKGRMLFGKLMMQKPNILIMDEPTNHLDMESIESLNMALELYQGTLIFVSHDREFVSSLATRILEITPERVIDFSGNYEDYLRSKGIEGLCGR	soluble
MEFHFFGTGSGVPSIERNVSACAVRFLQQRGKQWLFDCGEATQHQILRSSIALGKIERIFITHLHGDHIFGLPGLLGSRSFQGGENPLFLYGPKGIRSFVETALQVSNTHVKYELTIEEFSEPGLLFHEEGFKVETILLDHVMPCYAFKVTEDDRPGELLVDRLKAKGVPPGPLYRKIQQGETVELPTGERLEANAFLGPPKRGRSFVLAGDTRPVKELIPFAKNVNVLIHEATFLDDKKGHAHEYGHSTMADAIQLAKQANVDHLILTHISSRYHDMSDELQKKAQNAFANAVVAHDFYVFHLPLAKGLEHHHHHH	not soluble
MWNAGRETSSPGTELSENQAKKEKERLIKELQLITEERNDLRDRLRFLTERSMKNRSHFRPNPYYEDLERMEEAVMSILHNLEMENTEVHENNHKLKKEITFSR	soluble
MGSDKIHHHHHHMVRQRMTGKERREQLISIGRAVFAERGFDGASVEEIAARANVSKPVVYEHFGGKEGLYAVVIDREMVKLEAMITGSLQHGRSRYRIEQAVLALLTYVEDETDGFLILVRDMRPGERRSYGTLLNDATTQVSHILGNAFTRSGLNAEYANLYGQALVGMVSMTAQWWLDERTPPKEEVAAHIVNLCWNGLTGMEADPKLTPISSAEGAIFGQEKESEA	not soluble
MLRAKLLSWQEGVGSKTFEFDVDVEPRSYVISKVSQLSPIIASEDLTVCEGEVAVVGTRVIEIPENTVVRPVAAISHANGFVADVIECGAPGMVEDEKCINHAVFIPTRSGDVKEGDLLGMLRINFVRTGLLSRVIPSKPRVEERTVKASLTWVEGGVFYRENVTGTFSGYFESERCSLLPIVADERVRIEKGGVSAVEIERVDVKGGSIITPYGLAANAFAQLLDLVGGRTRKFEEDRVFDEAVLVGFSDGVVEKGEVLGLVCVMGESSGGGNSRQLQFSRKAGKGVVKTIHEYRSKPLRVGRKGEWRPAISDENRKLIRGVAEIIKIRPINVPDYAVVNPLGIMRQAYGTMVGGIANEPWSLESRKTIEEVVFLPIMDGEVRKGQLIGVFNVTRVAEGKLLEHHHHHH	soluble
MTLPTTIYSFPAYLSRFSSTDKPVKLKFHQYARATLLSNRGRDHNCDGRRTVEIHKLDLSDWQAFNKLATRCNAYDGITMNGDNSFGWNHEATLDNIHAQKYNKAYAGARLTAELKYLLQDVESFEPNSKYTIHEVVLGPGYGTPDYTGQTIGYVVTLPAQMPNCWSSELPTIDLYIDQLRTVTGVSNALGFIIAALLNAYSDLPHDLKIGLRSLSSSAAIYSGLGFERVPQERDISCARMYLTPANHPDLWTQENGEWIYLRN	not soluble
MNIDIKEAHRRMLYLLQSFDTVCKKHDIDYWLDYGTLLGAIRHQGFIPWDTDTDVGMLRSDYALFLEKGVPELPQDIFFQTPETEPAMAPWSWLVEARLRDRHSRYVPDKKTPAEPMQFGGLQLDLFIYDWDGKYENALSNSFERNLSESRIHLRLDEVEYLDTARFEGVEFPVPSGYDAYLTRCYGDYRTFPPEEERQIPEVVAWSVLEHHHHHH	soluble
MSKYLHSEKAYLDLINAVKDKFNYKKSVVPYIIYFLLKTGMRYGELIALTWEDIDFDKGIFKTYRRFNSETSQFVPPKNKTSIRIVPVDNECLEILKNLKIEQNQSNKELGLQNTNNMVFQHFGYPNSVPSTNGTNKVLRGIVQELNIEPIITTKGARHTYGSFLWHRGYDLGIIAKILGHKDISMLIEVYGHTLEEKIQEEYNEIKQLWLEHHHHHH	soluble
MSIPEELWRRFQEGDPRALARALTLVESGHPAGRELLKRVRGKGRAKVVGVTGSPGAGKSTLTDRLILEARKRGERVAVLAVDPSSPFSGGAILGDRIRMMRHHQDPGVYIRSMASRGALGGLAGATVAALSLLEAFGFDRIFVETVGVGQSEVDIARVADTTLLVLTPAAGDAVQAFKAGVMEIADVFAVNKFDLPGGERIVQELKSALELSPPRPGGWRPPIHPTVAASGEGVEALFESLEAHHRHLVEHGLLEAHRLERARFEVESVIQEWGRQRTQGAGALVARVARGELTPEEAALALLGPGPEAEEGAL	soluble
MADDDDRVDISNETLASLVGRPMSSSGNRIRATPSRRRLVSAPTNPRWSPSADDRRLFSYVSSMRSDSNSSSKSPSPPSAKMSKRPNGPYSVRKYQPRGSPPSDGSDKIHRFGESPTPGGVGGVFGTELDDLIIDELMGMEDDQRMRPGATRPMTIGGEKTMSMARPIPGASSRAGSGHSGSPITIPNAMSNNFRQVVSSSAPTSSIDIEKMIGAVSNGGGNSGGDNDPEDYYRDRRKKDIHNMIERRRRYNINDRIKELGQMLPKNTSEDMKLNKGTILKASCDYIRVLQKDREQAMKTQQQQKSLESTAHKYADRVKELEEMLARQGVQVPPSHLPPIPKVIERPIKQEIDESPPNHTPTGSFVSSSGFLSEVTNNTAAMQITSPNDSRPNNFMNNSAPSDSFFSVGSASPPDYRTSSGTASWKLPGSNAFSDLMMDDLNPMMNGDPLISSAGAHPSPHFHSSQMSPDIHWDASGFSPDPINTQQSNSGHYHMDFS	not soluble
MALRNVPFRSEVLGWDPDSLADYFKKLNYKDCEKAVKKYHIDGARFLNLTENDIQKFPKLRVPILSKLSQEINKNEERRSIFTRKPQVPRFPEETESHEEDNGGWSSFEEDDYESPNDDQDGEDDGDYESPNEEEEAPVEDDADYEPPPSNDEEALQNSILPAKPFPNSNSMYIDRPPSGKTPQQPPVPPQRPMAALPPPPAGRNHSPLPPPQTNHEEPSRSRNHKTAKLPAPSIDRSTKPPLDRSLAPFDREPFTLGKKPPFSDKPSIPAGRSLGEHLPKIQKPPLPPTTERHERSSPLPGKKPPVPKHGWGPDRRENDEDDVHQRPLPQPALLPMSSNTFPSRSTKPSPMNPLPSSHMPGAFSESNSSFPQSASLPPYFSQGPSNRPPIRAEGRNFPLPLPNKPRPPSPAEEENSLNEEWYVSYITRPEAEAALRKINQDGTFLVRDSSKKTTTNPYVLMVLYKDKVYNIQIRYQKESQVYLLGTGLRGKEDFLSVSDIIDYFRKMPLLLIDGKNRGSRYQCTLTHAAGYP	soluble
MTVPYETAKAALLEAAMMHVPFDGWSETTFQAAARDAELSPSVARAICPRGAVDLAIAFHKAGDAAMLDRLAETDLSAMKFRDKVTAAVRIRLEVIEDKEAVRRGTTLFALPMYAADGAKLIWGTCDAIWTTLGDTSDDVNWYTKRATLSGVYSSTVLYWLGDDSPDHMATWGFLDRRIENVMAIEQVKAKVRQSPTLSRLMTGPNWLLSQIKAPRITPKTDLEHHHHHH	soluble
SLPKQIDTILINIGQLLTMESSGPRAGKSMQDLHVIEDAVVGIHEQKIVFAGQKGAEAGYEADEIIDCSGRLVTPGLVDPHTHLVFGGSREKEMNLKLQGISYLDILAQGGGILSTVKDTRAASEEELLQKAHFHLQRMLSYGTTTAEVKSGYGLEKETELKQLRVAKKLHESQPVDLVSTFMGAHAIPPEYQNDPDDFLDQMLSLLPEIKEQELASFADIFTETGVFTVSQSRRYLQKAAEAGFGLKIHADEIDPLGGAELAGKLKAVSADHLVGTSDEGIKKLAEAGTIAVLLPGTTFYLGKSTYARARAMIDEGVCVSLATDFNPGSSPTENIQLIMSIAALHLKMTAEEIWHAVTVNAAYAIGKGEEAGQLKAGRSADLVIWQAPNYMYIPYHYGVNHVHQVMKNGTIVVNREGAILG	soluble
MKISVITINYNNGEQLEATIQSVVSNVTVLRELLGEKAEYIVIDGGSVDCSVSVLQKYSEYISYWISEKDKGIYHAMNKGISVAQGEYCFFLNSGDTFYEDDTLKKALLFLKEDFVCGNAVLKYAGGINEWSAPEIVNTLFFMQRFSVCHQSLFIRTELLKSHPYNETLMIVADYEQMFYEIAVNHRSYKKIDLTICYYGCDGVSSDHEKADAEKRSVINEFRYLGYIEPDELWNVVSKLKIGTRKYRLLLSLAKCLTSSPKYWVRLEHHHHHH	soluble
MYAAKGTQAYAQIGVESAVMSASQQQLVTMLFDGVLSALVRASLFMQDNNQQGKGVSLSKAINIIENGLRVSLDEESKDELTQNLIALYSYMVRRLLQANLRNDVSAVEEVEALMRNIADAWKESLLSPSLIQDPV	soluble
MKTIYLYKAQIPEGKNKGDNAILITNQTVIDKLEKAAKEDGKSGTQVSTIASKSTTKENQENKIIGYTSTDNLREDNKNIFDIDDLNDEKYDRKIIVSATEEVLEQSNTLQSEEAVVLPAPAKYKASDSTKIAITQEPNLIGIHANEKENEETRKFVNW	soluble
MDYMERPKLGLIVREPYASLIVDGRKVWEIRRRKTRHRGPLGIVSGGRLIGQADLVGVEGPFSVEELLAHQEKHLAEEAFLRAYAKDEPLYAWVLENAFRYEKPLHVPRRPGRVMFVDLSEVRW	soluble
MGHHHHHHSHMDNCLAAAALNGVDRRSLQRSARLALEVLERAKRRAVDWHALERPKGCMGVLAREAPHLEKQPAAGPQRVLPGEREERPPTLSASFRTMAEFMDYTSSQCGKYYSSVPEEGGATHVYRYHRGESKLHMCLDIGNGQRKDRKKTSLGPGGSYQISEHAPEASQPAENISKDLYIEVYPGTYSVTVGSNDLTKKTHVVAVDSGQSVDLVFPV	not soluble
MWAFRTARIGSLLAATSVILRRCLRLGVAMAKSKFEYVRNFEVQDTCLPHCWVVVRLDGRNFHRFAEEHNFAKPNDSRALHLMTKCAQTVMEELEDIVIAYGQSDEYSFVFRKKSNWFKRRASKFMTLVASQFASSYVFYWRDYFEDQPLRYPPGFDGRVVLYPSNQTLKDYLSWRQADCHINNLYNTVFWALIQQSGLTPVQAQQRLKGTLTADKNEILFSEFHINYNNEPHMYRKGTVLVWQKVEEVRTQEVRLPAEMEGEKKAVARTRTRVVALNCDLIGDAFWKEHPEILAEEN	soluble
